Measurements taken from the supplement of paper PMC10065799, “High-throughput profiling of sequence recognition by tyrosine kinases and SH2 domains using bacterial peptide display” (eLife, 2023).

tested on: AncSZ; test: phosphorylation enrichment, bacterial display (enrichment ratio); higher = better substrate or ligand; peptides without Tyr show the background
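Further: 11-residue human phosphosite peptides and single-mutation variants displayed on the E. coli surface, counted by deep sequencing, each peptide's frequency after selection divided by its frequency in the unselected input library; frequency after pTyr selection over input frequency; kinase dosed for 20-30% of maximal phosphorylation in three min.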

Sequence	phosphorylation enrichment
LTERGYSFTTK [ACTG1_Y198_T203K]	3
GLAKGYIDPET [CSNK1G2_Y195_E194G]	1.04
KRFRIYHLAIS [BRCA2_Y3009_T3013I_YF]	0.899
LEYNEYFRDLN [HPRT1_Y198_D194E]	2.6
RDMNAYIRPSP [MMAA_Y207]	1.03
HELYVYKCDEN [DOCK3_Y548]	1.48
EIRTQYEVMAS [GFAP_Y242_A244V]	0.74
FADIAYNFHHG [PAH_Y166_R169H_YF]	0.686
DAPVVYLGSFG [PRAG1_Y132_R137G]	0.863
VVEFGYEFFAK [PPP1CB_Y254_D252Y_YF]	1.52
AIMSFYATLID [RYR1_Y2426_A2428T]	1.31
TLDTDYQMTKR [ADA_Y308]	0.77
NKFTTYLPRLP [C9orf24_Y126_YF]	0.568
GFRVFYTPDSR [PTPRF_Y451_YF]	0.962
PYIDSYEKDVA [PGM1_Y521_L516P]	1.66
GIFEDYVEGLR [MYL6_Y89_T85I_YF]	1.25
HFECKYVINAI [MAOA_Y268_YF]	2.43
RHFTTYDTNGR [CLCA1_Y665_Y661H]	0.93
QQLQGYVPSNY [FRK_Y99_I100V]	0.554
IGHGSYAKVLL [PRKCZ_Y263_R260H]	0.728
SDYSRYARTSI [TERT_Y949_S948R]	0.59
PKSLFYLLLKL [TRPC6_Y775]	2.5
AIYRRYSKFFD [SH3PXD2B_Y45]	0.989
NLNGKYNKPRA [ANGPTL3_Y417]	0.51
LITTLYIGFLG [KCNQ1_Y267]	2.41
TMKSHYMELFD [BBS2_Y644_R643H_YF]	1.1
VVLGSYDRLRV [IFT172_Y260]	0.584
HNLYSYPTKHE [MYO3A_Y1396]	3.92
APNEFYDGDHD [HDAC3_Y414]	1.3

molecular target: EPHB1 (UniProt P54762); test: as above
Sequence (P54762 whole entry, looked up): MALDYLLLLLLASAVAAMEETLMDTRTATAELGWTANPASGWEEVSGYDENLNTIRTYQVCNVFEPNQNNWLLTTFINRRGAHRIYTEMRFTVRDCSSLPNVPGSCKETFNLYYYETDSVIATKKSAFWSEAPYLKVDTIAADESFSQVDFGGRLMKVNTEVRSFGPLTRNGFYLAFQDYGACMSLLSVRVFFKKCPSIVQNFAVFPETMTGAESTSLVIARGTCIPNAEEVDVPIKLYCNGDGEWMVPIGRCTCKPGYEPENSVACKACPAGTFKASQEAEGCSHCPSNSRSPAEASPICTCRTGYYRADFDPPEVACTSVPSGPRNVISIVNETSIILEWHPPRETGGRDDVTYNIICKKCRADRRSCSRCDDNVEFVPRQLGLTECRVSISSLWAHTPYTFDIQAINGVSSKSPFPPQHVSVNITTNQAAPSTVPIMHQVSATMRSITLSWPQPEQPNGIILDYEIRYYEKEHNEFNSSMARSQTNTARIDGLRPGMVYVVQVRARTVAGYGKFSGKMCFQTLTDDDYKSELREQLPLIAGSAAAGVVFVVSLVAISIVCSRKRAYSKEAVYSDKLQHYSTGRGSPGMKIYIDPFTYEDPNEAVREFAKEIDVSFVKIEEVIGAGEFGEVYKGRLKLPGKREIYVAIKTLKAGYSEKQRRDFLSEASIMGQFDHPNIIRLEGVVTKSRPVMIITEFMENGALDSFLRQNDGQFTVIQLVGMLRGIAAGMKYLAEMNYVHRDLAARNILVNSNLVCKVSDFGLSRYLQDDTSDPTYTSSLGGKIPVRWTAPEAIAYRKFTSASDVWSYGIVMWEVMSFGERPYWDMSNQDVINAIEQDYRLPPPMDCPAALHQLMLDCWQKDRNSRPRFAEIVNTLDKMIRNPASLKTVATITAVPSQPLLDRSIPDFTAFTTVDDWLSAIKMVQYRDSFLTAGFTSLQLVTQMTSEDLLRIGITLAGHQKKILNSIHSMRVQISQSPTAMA

Sequence	phosphorylation enrichment
LTERGYSFTTK [ACTG1_Y198_T203K]	1.8
GLAKGYIDPET [CSNK1G2_Y195_E194G]	0.509
KRFRIYHLAIS [BRCA2_Y3009_T3013I_YF]	0.612
LEYNEYFRDLN [HPRT1_Y198_D194E]	1.18
RDMNAYIRPSP [MMAA_Y207]	0.444
HELYVYKCDEN [DOCK3_Y548]	0.762
EIRTQYEVMAS [GFAP_Y242_A244V]	0.445
FADIAYNFHHG [PAH_Y166_R169H_YF]	0.427
DAPVVYLGSFG [PRAG1_Y132_R137G]	0.389
VVEFGYEFFAK [PPP1CB_Y254_D252Y_YF]	0.583
AIMSFYATLID [RYR1_Y2426_A2428T]	1.05
TLDTDYQMTKR [ADA_Y308]	0.45
NKFTTYLPRLP [C9orf24_Y126_YF]	0.437
GFRVFYTPDSR [PTPRF_Y451_YF]	0.562
PYIDSYEKDVA [PGM1_Y521_L516P]	0.907
GIFEDYVEGLR [MYL6_Y89_T85I_YF]	0.787
HFECKYVINAI [MAOA_Y268_YF]	1.14
RHFTTYDTNGR [CLCA1_Y665_Y661H]	0.609
QQLQGYVPSNY [FRK_Y99_I100V]	0.552
IGHGSYAKVLL [PRKCZ_Y263_R260H]	0.536
SDYSRYARTSI [TERT_Y949_S948R]	0.434
PKSLFYLLLKL [TRPC6_Y775]	1.04
AIYRRYSKFFD [SH3PXD2B_Y45]	0.603
NLNGKYNKPRA [ANGPTL3_Y417]	0.294
LITTLYIGFLG [KCNQ1_Y267]	1.19
TMKSHYMELFD [BBS2_Y644_R643H_YF]	0.764
VVLGSYDRLRV [IFT172_Y260]	0.442
HNLYSYPTKHE [MYO3A_Y1396]	11.6
APNEFYDGDHD [HDAC3_Y414]	0.613

molecular target: EPHB2 (UniProt P29323); test: as above
Sequence (P29323 whole entry, looked up): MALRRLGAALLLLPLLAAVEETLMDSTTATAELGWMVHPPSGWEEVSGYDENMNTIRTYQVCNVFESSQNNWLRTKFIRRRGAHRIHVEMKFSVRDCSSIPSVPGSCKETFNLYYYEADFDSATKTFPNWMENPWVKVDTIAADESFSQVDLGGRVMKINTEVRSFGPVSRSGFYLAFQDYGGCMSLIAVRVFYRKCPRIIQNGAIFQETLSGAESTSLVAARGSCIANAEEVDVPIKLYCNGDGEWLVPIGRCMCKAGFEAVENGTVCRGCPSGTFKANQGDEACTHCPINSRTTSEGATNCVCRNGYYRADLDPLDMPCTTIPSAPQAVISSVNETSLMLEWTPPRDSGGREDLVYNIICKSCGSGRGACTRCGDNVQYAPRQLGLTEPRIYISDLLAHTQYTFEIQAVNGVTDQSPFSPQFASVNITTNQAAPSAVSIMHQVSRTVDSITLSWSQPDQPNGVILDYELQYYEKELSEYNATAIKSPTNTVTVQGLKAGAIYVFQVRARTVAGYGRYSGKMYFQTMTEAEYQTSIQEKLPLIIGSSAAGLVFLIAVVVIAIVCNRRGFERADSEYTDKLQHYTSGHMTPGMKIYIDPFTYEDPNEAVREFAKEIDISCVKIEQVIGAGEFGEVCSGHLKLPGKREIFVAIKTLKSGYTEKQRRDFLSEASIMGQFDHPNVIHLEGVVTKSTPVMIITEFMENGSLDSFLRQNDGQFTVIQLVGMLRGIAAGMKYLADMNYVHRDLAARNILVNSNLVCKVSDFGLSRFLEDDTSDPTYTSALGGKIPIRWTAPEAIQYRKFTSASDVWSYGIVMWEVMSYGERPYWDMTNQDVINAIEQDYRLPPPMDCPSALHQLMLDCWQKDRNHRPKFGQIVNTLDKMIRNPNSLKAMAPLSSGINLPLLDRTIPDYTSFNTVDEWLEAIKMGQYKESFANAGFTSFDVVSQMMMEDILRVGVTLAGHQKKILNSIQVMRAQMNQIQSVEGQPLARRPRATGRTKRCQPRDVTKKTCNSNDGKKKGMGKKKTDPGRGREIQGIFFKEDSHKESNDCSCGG

Sequence	phosphorylation enrichment
LTERGYSFTTK [ACTG1_Y198_T203K]	2.03
GLAKGYIDPET [CSNK1G2_Y195_E194G]	0.588
KRFRIYHLAIS [BRCA2_Y3009_T3013I_YF]	0.524
LEYNEYFRDLN [HPRT1_Y198_D194E]	0.975
RDMNAYIRPSP [MMAA_Y207]	1.02
HELYVYKCDEN [DOCK3_Y548]	0.862
EIRTQYEVMAS [GFAP_Y242_A244V]	0.476
FADIAYNFHHG [PAH_Y166_R169H_YF]	0.524
DAPVVYLGSFG [PRAG1_Y132_R137G]	0.579
VVEFGYEFFAK [PPP1CB_Y254_D252Y_YF]	0.52
AIMSFYATLID [RYR1_Y2426_A2428T]	0.836
TLDTDYQMTKR [ADA_Y308]	0.504
NKFTTYLPRLP [C9orf24_Y126_YF]	0.445
GFRVFYTPDSR [PTPRF_Y451_YF]	0.448
PYIDSYEKDVA [PGM1_Y521_L516P]	0.857
GIFEDYVEGLR [MYL6_Y89_T85I_YF]	0.7
HFECKYVINAI [MAOA_Y268_YF]	0.762
RHFTTYDTNGR [CLCA1_Y665_Y661H]	0.97
QQLQGYVPSNY [FRK_Y99_I100V]	0.36
IGHGSYAKVLL [PRKCZ_Y263_R260H]	0.656
SDYSRYARTSI [TERT_Y949_S948R]	0.495
PKSLFYLLLKL [TRPC6_Y775]	1.89
AIYRRYSKFFD [SH3PXD2B_Y45]	0.568
NLNGKYNKPRA [ANGPTL3_Y417]	0.353
LITTLYIGFLG [KCNQ1_Y267]	1.12
TMKSHYMELFD [BBS2_Y644_R643H_YF]	0.582
VVLGSYDRLRV [IFT172_Y260]	0.451
HNLYSYPTKHE [MYO3A_Y1396]	16
APNEFYDGDHD [HDAC3_Y414]	0.605

molecular target: FGFR1 (UniProt P11362); test: as above
Sequence (P11362 whole entry, looked up): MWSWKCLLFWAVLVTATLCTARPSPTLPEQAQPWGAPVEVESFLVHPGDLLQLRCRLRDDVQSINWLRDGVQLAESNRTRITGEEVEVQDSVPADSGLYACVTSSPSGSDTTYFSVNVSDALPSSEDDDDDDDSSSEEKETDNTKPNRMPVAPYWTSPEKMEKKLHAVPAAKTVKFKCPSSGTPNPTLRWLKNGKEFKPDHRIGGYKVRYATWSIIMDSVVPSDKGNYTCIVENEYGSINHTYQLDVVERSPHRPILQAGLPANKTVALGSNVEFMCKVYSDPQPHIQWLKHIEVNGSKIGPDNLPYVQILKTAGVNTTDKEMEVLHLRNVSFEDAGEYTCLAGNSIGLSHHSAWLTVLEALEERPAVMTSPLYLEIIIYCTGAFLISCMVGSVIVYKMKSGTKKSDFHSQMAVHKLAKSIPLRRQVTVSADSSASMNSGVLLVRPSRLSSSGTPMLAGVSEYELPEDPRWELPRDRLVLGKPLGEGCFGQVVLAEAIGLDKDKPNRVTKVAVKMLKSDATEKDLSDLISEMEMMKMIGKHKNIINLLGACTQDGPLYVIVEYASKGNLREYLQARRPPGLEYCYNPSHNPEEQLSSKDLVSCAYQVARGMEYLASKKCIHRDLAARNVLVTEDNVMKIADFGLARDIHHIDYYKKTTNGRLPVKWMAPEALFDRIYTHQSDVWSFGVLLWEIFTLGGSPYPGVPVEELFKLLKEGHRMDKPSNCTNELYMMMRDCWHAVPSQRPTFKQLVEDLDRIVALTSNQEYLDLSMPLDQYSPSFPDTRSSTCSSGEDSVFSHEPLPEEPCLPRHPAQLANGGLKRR

Sequence	phosphorylation enrichment
LTERGYSFTTK [ACTG1_Y198_T203K]	1.96
GLAKGYIDPET [CSNK1G2_Y195_E194G]	0.476
KRFRIYHLAIS [BRCA2_Y3009_T3013I_YF]	0.644
LEYNEYFRDLN [HPRT1_Y198_D194E]	1.89
RDMNAYIRPSP [MMAA_Y207]	0.804
HELYVYKCDEN [DOCK3_Y548]	0.957
EIRTQYEVMAS [GFAP_Y242_A244V]	0.493
FADIAYNFHHG [PAH_Y166_R169H_YF]	0.515
DAPVVYLGSFG [PRAG1_Y132_R137G]	0.491
VVEFGYEFFAK [PPP1CB_Y254_D252Y_YF]	0.558
AIMSFYATLID [RYR1_Y2426_A2428T]	0.601
TLDTDYQMTKR [ADA_Y308]	0.462
NKFTTYLPRLP [C9orf24_Y126_YF]	0.47
GFRVFYTPDSR [PTPRF_Y451_YF]	0.52
PYIDSYEKDVA [PGM1_Y521_L516P]	0.907
GIFEDYVEGLR [MYL6_Y89_T85I_YF]	0.567
HFECKYVINAI [MAOA_Y268_YF]	0.627
RHFTTYDTNGR [CLCA1_Y665_Y661H]	0.808
QQLQGYVPSNY [FRK_Y99_I100V]	0.458
IGHGSYAKVLL [PRKCZ_Y263_R260H]	0.517
SDYSRYARTSI [TERT_Y949_S948R]	0.428
PKSLFYLLLKL [TRPC6_Y775]	1.12
AIYRRYSKFFD [SH3PXD2B_Y45]	0.509
NLNGKYNKPRA [ANGPTL3_Y417]	0.344
LITTLYIGFLG [KCNQ1_Y267]	0.712
TMKSHYMELFD [BBS2_Y644_R643H_YF]	0.708
VVLGSYDRLRV [IFT172_Y260]	0.45
HNLYSYPTKHE [MYO3A_Y1396]	0.782
APNEFYDGDHD [HDAC3_Y414]	0.624
